Publication PMC11098746 (2024)
No end group written: not given here.

B1: ADP121 (protein)
chain: MGTLLLVLWLATRGSALYFHIGETEKKCFIEEIPDETMVIGNYRTQLYDKQREEYQPATPGLGMFVEVKDPEDKVILARQYGSEGRFTFTSHTPGEHQICLHSNSTKFSLFAGGMLRVHLDIQVGEHANDYAEIAAKDKLSELQLRVRQLVEQVEQIQKEQNYQRWREERFRQTSESTNQR
modifications: bait human Fc-tagged dimer
B2: ADP273 (protein)
chain: RGSCQACGDSVLVVSEDVNYEPDLDFHQGRLYWSDLQAMFLQFLGEGRLEDTIRQTSLRERVAGSAGMAALTQDIRAALSRQKLDHVWTDTHYVGLQFPDPAHPNTLHWVDEAGKVGEQLPLEDPDVYCPYSAIGNVTGELVYAHYGRPEDLQDLRARGVDPVGRLLLVRVGVISFAQKVTNAQDFGAQGVLIYPEPADFSQDPPKPSLSSQQAVYGHVHLGTGDPYTPGFPSFNQTQFPPVASSGLPSIPAQPISADIASRLLRKLKGPVAPQEWQGSLLGSPYHLGPGPRLRLVVNNHRTSTPINNIFGCIEGRSEPDHYVVIGAQRDAWGPGAAKSAVGTAILLELVRTFSSMVSNGFRPRRSLLFISWDGGDFGSVGSTEWLEGYLSVLHLKAVVYVSLDNAVLGDDKFHAKTSPLLTSLIESVLKQVDSPNHSGQTLYEQVVFTNPSWDAEVIRPLPMDSSAYSFTAFVGVPAVEFSFMEDDQAYPFLHTKEDTYENLHKVLQGRLPAVAQAVAQLAGQLLIRLSHDRLLPLDFGRYGDVVLRHIGNLNEFSGDLKARGLTLQWVYSARGDYIRAAEKLRQEIYSSEERDERLTRMYNVRIMRVEFYFLSQYVSPADSPFRHIFMGRGDHTLGALLDHLRLLRSNSSGTPGATSSTGFQESRFRRQLALLTWTLQGAANALSGDVWNIDNNF
modifications: bait human Fc-tagged dimer
B3: ADP368 (protein)
chain: MERASCLLLLLLPLVHVSATTPEPCELDDEDFRCVCNFSEPQPDWSEAFQCVSAVEVEIHAGGLNLEPFLKRVDADADPRQYADTVKALRVRRLTVGAAQVPAQLLVGALRVLAYSRLKELTLEDLKITGTMPPLPLEATGLALSSLRLRNVSWATGRSWLAELQQWLKPGLKVLSIAQAHSPAFSCEQVRAFPALTSLDLSDNPGLGERGLMAALCPHKFPAIQNLALRNTGMETPTGVCAALAAAGVQPHSLDLSHNSLRATVNPSAPRCMWSSALNSLNLSFAGLEQVPKGLPAKLRVLDLSCNRLNRAPQPDELPEVDNLTLDGNPFLVPGTALPHEGSMN
modifications: bait human Fc-tagged dimer
B4: ADP333 (protein)
chain: MASVVLPSGSQCAAAAAAAAPPGLRLRLLLLLFSAAALIPTGDGQNLFTKDVTVIEGEVATISCQVNKSDDSVIQLLNPNRQTIYFRDFRPLKDSRFQLLNFSSSELKVSLTNVSISDEGRYFCQLYTDPPQESYTTITVLVPPRNLMIDIQKDTAVEGEEIEVNCTAMASKPATTIRWFKGNTELKGKSEVEEWSDMYTVTSQLMLKVHKEDDGVPVICQVEHPAVTGNLQTQRYLEVQYKPQVHIQMTYPLQGLTREGDALELTCEAIGKPQPVMVTWVRVDDEMPQHAVLSGPNLFINNLNKTDNGTYRCEASNIVGKAHSDYMLYVYDPPTTIPPPTT
modifications: bait human Fc-tagged dimer
B5: ADP332 (protein)
chain: MAPPGRRECPFPSWRFPGLLLAAMVLLLYSFSDACEEPPTFEAMELIGKPKPYYEIGERVDYKCKKGYFYIPPLATHTICDRNHTWLPVSDDACYRETCPYIRDPLNGQAVPANGTYEFGYQMHFICNEGYYLIGEEILYCELKGSVAIWSGKPPICEKVLCTPPPKIKNGKHTFSEVEVFEYLDAVTYSCDPAPGPDPFSLIGESTIYCGDNSVWSRAAPECKVVKCRFPVVENGKQISGFGKKFYYKATVMFECDKGFYLDGSDTIVCDSNSTWDPPVPKCLKVLPPSSTKPPALSHSVSTSSTTKSPASSASGPRPTYKPPVSNYPGYPKPEEGILDSLDV
modifications: bait human Fc-tagged dimer
B6: ADP096 (protein)
chain: GIQYQTRSPSVCLSEACVSVTSSILSSMDPTVDPCHDFFSYACGGWIKANPVPDGHSRWGTFSNLWEHNQAIIKHLLENSTASVSEAERKAQVYYRACMNETRIEELRAKPLMELIERLGGWNITGPWAKDNFQDTLQVVTAHYRTSPFFSVYVSADSKNSNSNVIQVDQSGLGLPSRDYYLNKTENEKVLTGYLNYMVQLGKLLGGGDEEAIRPQMQQILDFETALANITIPQEKRRDEELIYHKVTAAELQTLAPAINWLPFLNTIFYPVEINESEPIVVYDKEYLEQISTLINTTDRCLLNNYMIWNLVRKTSSFLDQRFQDADEKFMEVMYGTKKTCLPRWKFCVSDTENNLGFALGPMFVKATFAEDSKSIATEIILEIKKAFEESLSTLKWMDEETRKSAKEKADAIYNMIGYPNFIMDPKELDKVFNDYTAVPDLYFENAMRFFNFSWRVTADQLRKAPNRDQWSMTPPMVNAYYSPTKNEIVFPAGILQAPFYTRSSPKALNFGGIGVVVGHELTHAFDDQGREYDKDGNLRPWWKNSSVEAFKRQTECMVEQYSNYSVNGEPVNGRHTLGENIADNGGLKAAYRAYQNWVKKNGAEHSLPTLGLTNNQLFFLGFAQVWCSVRTPESSHEGLITDPHSPSRFRVIGSLSNSKEFSEHFRCPPGSPMNPPHKCEVW
modifications: bait human Fc-tagged dimer
B7: ADP269 (protein)
chain: SRHQAPCGPQAFAHAAVAADSKVCSDIGRAILQQQGSPVDATIAALVCTSVVNPQSMGLGGGVIFTIYNVTTGKVEVINARETVPASHAPSLLDQCAQALPLGTGAQWIGVPGELRGYAEAHRRHGRLPWAQLFQPTIALLRGGHVVAPVLSRFLHNSILRPSLQASTLRQLFFNGTEPLRPQDPLPWPALATTLETVATEGVEVFYTGRLGQMLVEDIAKEGSQLTLQDLAKFQPEVVDALEVPLGDYTLYSPPPPAGGAILSFILNVLRGFNFSTESMARPEGRVNVYHHLVETLKFAKGQRWRLGDPRSHPKLQNASRDLLGETLAQLIRQQIDGRGDHQLSHYSLAEAWGHGTGTSHVSVLGEDGSAVAATSTINTPFGAMVYSPRTGIILNNELLDLCERCPRGSGTTPSPAVSGDRVGGAPGRCWPPVPGERSPSSMVPSILINKAQGSKLVIGGAGGELIISAVAQAIMSKLWLGFDLRAAIAAPILHVNSKGCVEYEPNFSQEVQRGLQDRGQNQTQRPFFLNVVQAVSQEGACVYAVSDLRKSGEAAGY
modifications: bait human Fc-tagged dimer
B8: ADP316 (protein)
chain: MAAAGAAVARSPGIGAGPALRARRSPPPRAARLPRLLVLLAAAAVGPGAGGAARLYRAGEDAVWVLDSGSVRGATANSSAAWLVQFYSSWCGHCIGYAPTWRALAGDVRDWASAIRVAALDCMEEKNQAVCHDYDIHFYPTFRYFKAFTKEFTTGENFKGPDRELRTVRQTMIDFLQNHTEGSRPPACPRLDPIQPSDVLSLLDNRGSHYVAIVFESNSSYLGREVILDLIPYESIVVTRALDGDKAFLEKLGVSSVPSCYLIYPNGSHGLINVVKPLRAFFSSYLKSLPDVRKKSLPLPEKPHKEENSEIVVWREFDKSKLYTVDLESGLHYLLRVELAAHKSLAGAELKTLKDFVTVLAKLFPGRPPVKKLLEMLQEWLASLPLDRIPYNAVLDLVNNKMRISGIFLTNHIKWVGCQGSRSELRGYPCSLWKLFHTLTVEASTHPDALVGTGFEDDPQAVLQTMRRYVHTFFGCKECGEHFEEMAKESMDSVKTPDQAILWLWKKHNMVNGRLAGHLSEDPRFPKLQWPTPDLCPACHEEIKGLASWDEGHVLTFLKQHYGRDNLLDTYSADQGDSSEGGTLARGEEEEKRLTPPEVSHGDRDTQSVRPPGALGPRPALPESLHHSLDGKLQSLDGPGAHKEVGGAAPFLGVDFSSLDM
modifications: bait human Fc-tagged dimer
B9: ADP359 (protein)
chain: MAAEWASRFWLWATLLIPAAAVYEDQVGKFDWRQQYVGKVKFASLEFSPGSKKLVVATEKNVIAALNSRTGEILWRHVDKGTAEGAVDAMLLHGQDVITVSNGGRIMRSWETNIGGLNWEITLDSGSFQALGLVGLQESVRYIAVLKKTTLALHHLSSGHLKWVEHLPESDSIHYQMVYSYGSGVVWALGVVPFSHVNIVKFNVEDGEIVQQVRVSTPWLQHLSGACGVVDEAVLVCPDPSSRSLQTLALETEWELRQIPLQSLDLEFGSGFQPRVLPTQPNPVDASRAQFFLHLSPSHYALLQYHYGTLSLLKNFPQTALVSFATTGEKTVAAVMACRNEVQKSSSSEDGSMGSFSEKSSSKDSLACFNQTYTINLYLVETGRRLLDTTITFSLEQSGTRPERLYIQVFLKKDDSVGYRALVQTEDHLLLFLQQLAGKVVLWSREESLAEVVCLEMVDLPLTGAQAELEGEFGKKADGLLGMFLKRLSSQLILLQAWTSHLWKMFYDARKPRSQIKNEINIDTLARDEFNLQKMMVMVTASGKLFGIESSSGTILWKQYLPNVKPDSSFKLMVQRTTAHFPHPPQCTLLVKDKESGMSSLYVFNPIFGKWSQVAPPVLKRPILQSLLLPVMDQDYAKVLLLIDDEYKVTAFPATRNVLRQLHELAPSIFFYLVDAEQGRLCGYRLRKDLTTELSWELTIPPEVQRIVKVKGKRSSEHVHSQGRVMGDRSVLYKSLNPNLLAVVTESTDAHHERTFIGIFLIDGVTGRIIHSSVQKKAKGPVHIVHSENWVVYQYWNTKARRNEFTVLELYEGTEQYNATAFSSLDRPQLPQVLQQSYIFPSSISAMEATITERGITSRHLLIGLPSGAILSLPKALLDPRRPEIPTEQSREENLIPYSPDVQIHAERFINYNQTVSRMRGIYTAPSGLESTCLVVAYGLDIYQTRVYPS
modifications: bait human Fc-tagged dimer
B10: ADP383 (protein)
chain: GLKPSCAKEVKSCKGRCFERTFGNCRCDAACVELGNCCLDYQETCIEPEHIWTCNKFRCGEKRLTRSLCACSDDCKDKGDCCINYSSVCQGEKSWVEEPCESINEPQCPAGFETPPTLLFSLDGFRAEYLHTWGGLLPVISKLKKCGTYTKNMRPVYPTKTFPNHYSIVTGLYPESHGIIDNKMYDPKMNASFSLKSKEKFNPEWYKGEPIWVTAKYQGLKSGTFFWPGSDVEINGIFPDIYKMYNGSVPFEERILAVLQWLQLPKDERPHFYTLYLEEPDSSGHSYGPVSSEVIKALQRVDGMVGMLMDGLKELNLHRCLNLILISDHGMEQGSCKKYIYLNKYLGDVKNIKVIYGPAARLRPSDVPDKYYSFNYEGIARNLSCREPNQHFKPYLKHFLPKRLHFAKSDRIEPLTFYLDPQWQLALNPSERKYCGSGFHGSDNVFSNMQALFVGYGPGFKHGIEADTFENIEVYNLMCDLLNLTPAPNNGTHGSLNHLLKNPVYTPKHPKEVHPLVQCPFTRNPRDNLGCSCNPSILPIEDFQTQFNLTVAEEKIIKHETLPYGRPRVLQKENTICLLSQHQFMSGYSQDILMPLWTSYTVDRNDSFSTEDFSNCLYQDFRIPLSPVHKCSFYKNNTKVSYGFLSPPQLNKNSSGIYSEALLTTNIVPMYQSFQVIWRYFHDTLLRKYAEERNGVNVVSGPVFDFDYDGRCDSLENLRQKRRVIRNQEILIPTHFFIVLTSCKDTSQTPLHCENLDTLAFILPHRTDNSESCVHGKHDSSWVEELLMLHRARITDVEHITGLSFYQQRKEPVSDILKLKTHLPTFSQED
modifications: bait human Fc-tagged dimer

What follows are binders tested against Circumsporozoite protein (CSP) (Plasmodium falciparum (isolate 3D7), UniProt Q7K740) (assay: AVEXIS screen signal:noise (double-corrected)).
Circumsporozoite protein (CSP), sequence (Q7K740 19-374): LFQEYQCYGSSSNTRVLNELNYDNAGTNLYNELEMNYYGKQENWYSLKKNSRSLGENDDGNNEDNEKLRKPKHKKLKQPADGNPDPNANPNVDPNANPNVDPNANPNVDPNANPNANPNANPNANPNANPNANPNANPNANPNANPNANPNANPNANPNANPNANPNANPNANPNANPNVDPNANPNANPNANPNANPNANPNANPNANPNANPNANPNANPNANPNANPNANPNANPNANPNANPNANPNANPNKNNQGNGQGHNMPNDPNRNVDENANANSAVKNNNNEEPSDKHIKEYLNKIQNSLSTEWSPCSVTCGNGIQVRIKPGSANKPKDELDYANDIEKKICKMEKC

| Binder | binding score |
| --- | --- |
| B1 | 0.979 |
| B2 | 0.72 |
| B3 | 1.29 |
| B4 | 1.11 |
| B5 | 0.982 |
| B6 | 0.507 |
| B7 | 0.734 |
| B8 | 1.06 |
| MASLGHILVFCVGLLTMAKAESPKEHDPFTYDYQS (also: human Fc-tagged dimer) [ADP327] | 1.89 |
| B9 | 0.432 |
| B10 | 0.856 |
